Laboratory results as given in patent US20190022243A1.

Biological target: human AXL (full length) (human (Homo sapiens)) (UniProt P30530)
Test: flow cytometry, A431 cells pre-incubated with 10 µg/mL Gas6 (competitor: Gas6)

- fold higher EC50 after Gas6 pre-incubation than without Gas6: 21 fold
- maximal binding in the presence of Gas6 (% of binding without Gas6): 19%
B1: IgG1-YW327.6S2 (antibody, from another filing, V domains shown)
VH: EVQLVESGGGLVQPGGSLRLSCAASGFSLSGSWIHWVRQAPGKGLEWVGWINPYRGYAYYADSVKGRFTISADTSKNTAYLQMNSLRAEDTAVYYCAREYSGWGGSSVGYAMDYWGQGTLVTVSS
VL: DIQMTQSPSSLSASVGDRVTITCRASQDVSTAVAWYQQKPGKAPKLLIYSASFLYSGVPSRFSGSGSGTDFTLTISSLQPEDFATYYCQQSYTTPPTFGQGTKVEIK
